Patent publication US20030044858A1 (Genentech, published 2003)

B1: MaE 13 murine anti-human IgE monoclonal antibody (antibody)
heavy: DVQLQESGPGLVKPSQSLSLTCTVTGYTITSDNAWNWIRQFPGNKLEWMGYINHSGTTSYNPSLKSRISITRDTSKNQFFLQLNSVTTEDTATYYCAWVVAYAMDYWGQGTSVTVSSAKTTPPSVYPLAR
light: DIVMTQSQKFMSTSVGDRVSVTCKASQNVSSNVAWYQQKPGQSPKALIYSASYRYSGVPDRFTGSGSGTDFTLTISNVQSEDLAEYFCQQYYTYPLYTFGGGTKLEIKRADAAPTVSIFPPSTR
notes: murine IgG1; may hold only the variable regions
B2: MaE 11 murine anti-human IgE monoclonal antibody (antibody)
heavy: DVQLQESGPGLVKPSQSLSLACSVTGYSITSGYSWNWIRQFPGNKLEWMGSITYDGSSNYNPSLKNRISVTRDTSQNQFFLKLNSATAEDTATYYCARGSHYFGHWHFAVWGAGTTVTVSSAKTTPPSVYPLAR
light: DIVLTQSPASLAVSLGQRATISCKASQSVDYDGDSYMNWYQQKPGQPPILLIYAASYLGSEIPARFSGSGSGTDFTLNIHPVEEEDAATFYCQQSHEDPYTFGAGTKLEIK
notes: murine IgG1; they may hold only the variable regions

Legend:
[1] = biological target: T1, membrane IgE on U266 B1 cells (human, UniProt P01854 1-546); assay: FACS on U266 B1 cells (membrane IgE+)
T1 construct: whole, on cells; also called Membrane IgE on U266BL; mIgE
T1 sequence (P01854 whole entry): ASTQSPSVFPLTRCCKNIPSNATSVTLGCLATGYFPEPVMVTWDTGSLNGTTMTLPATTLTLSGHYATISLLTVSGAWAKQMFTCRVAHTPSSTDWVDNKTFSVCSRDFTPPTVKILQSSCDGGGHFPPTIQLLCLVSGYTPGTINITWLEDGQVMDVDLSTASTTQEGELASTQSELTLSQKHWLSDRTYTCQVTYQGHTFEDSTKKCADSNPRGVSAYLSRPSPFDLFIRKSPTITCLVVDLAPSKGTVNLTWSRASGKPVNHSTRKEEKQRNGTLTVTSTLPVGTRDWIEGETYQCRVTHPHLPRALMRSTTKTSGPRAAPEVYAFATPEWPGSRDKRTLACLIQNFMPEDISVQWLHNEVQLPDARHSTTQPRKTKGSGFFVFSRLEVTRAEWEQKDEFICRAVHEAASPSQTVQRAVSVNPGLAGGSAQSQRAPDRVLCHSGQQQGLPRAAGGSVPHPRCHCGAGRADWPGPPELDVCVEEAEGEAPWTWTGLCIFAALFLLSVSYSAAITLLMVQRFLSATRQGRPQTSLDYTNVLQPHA
Experimental: c. […] Cells are added to 400 μl FACS buffer containing propidium iodide at 2 μg/ml to stain dead cells.

[2] = biological target: FCEH-bound IgE (human IgE held on FcεRI) (human, UniProt P01854 1-546; P12319 26-257); assay: cell-based or functional assay
Chain of FCEH-bound IgE (human IgE held on FcεRI) (P01854 whole entry, chain 1 of 2): as the sequence (P01854 whole entry) above
Chain of FCEH-bound IgE (human IgE held on FcεRI) (P12319 26-257, chain 2 of 2): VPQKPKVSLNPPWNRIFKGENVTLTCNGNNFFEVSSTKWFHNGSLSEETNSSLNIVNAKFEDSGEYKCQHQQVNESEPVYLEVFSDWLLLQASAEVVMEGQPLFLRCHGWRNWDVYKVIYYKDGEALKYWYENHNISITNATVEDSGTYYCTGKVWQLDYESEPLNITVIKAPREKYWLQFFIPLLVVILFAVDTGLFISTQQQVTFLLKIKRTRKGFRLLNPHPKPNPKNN

[3] = biological target: T2, human IgE (U266 IgE) (human, UniProt P01854 1-546); assay: ratio of 50% inhibition concentrations
T2 construct: mature; Purified from U266B1 cells or recombinant from 293 cells; the Scatchard assay used iodinated IgE of ND and PS allotypes; P01854 covers the constant region only; also called huIgE; U266 IgE standard
T2 sequence (P01854 whole entry): as the sequence (P01854 whole entry) above
Experimental: (§1) A 96-well assay plate (Manufn Nunc.) was coated with 0.05 ml of the FcεRI alpha chain IgG1 chimeric receptor in 1 μg/ml coating buffer ([…] carbonate/bicarbonate, pH 9.6). Assay was done for 12 hours at 4-8° C. The wells were aspirated and 250 μl blocking buffer (PBS—1% BSA pH 7.2) was added and incubated for one hour at 4° C. […] The FcεRI-coated wells were washed three times with PBS-0.05% Tween20, and then 50 μl from the sample wells were transferred and incubated with agitation for 30 minutes at 25° C. 50 μl/well of streptavidin-HRP diluted 1:5000 in assay buffer was incubated for 15 minutes with agitation and then the plate was washed as before. 50 μl/well of Microwell peroxidase substrate (Kirkgaard & Parry Laboratories) was added and color was developed for 30 minutes. The reaction was stopped by adding an equal volume of 1 normal HCl and the adsorbance measured at 450 nm.

[4] = biological target: T2, human IgE (U266 IgE); assay: 50% inhibition of IgE binding to FCEH (assay taken as that of Table 9)
Experimental: as §1

Binder | EC50 [1] [µg/mL] | PBL Histamine Release (EC50) [2] [µg/mL] | Var. X / IgL1H1 [3] [ratio] | Var. X / MaE11 [3] [ratio] | IC50 [4] [µg/mL]
B1 | 1 | > 10 | – | – | –
B2 | 0.15 | > 100 | 0.06 | 1 | 0.449
